The record followed here is patent publication US7375080B1, “Immobilized lactoferrin (Im-LF) antimicrobial agents and uses thereof” (priority 1999, dated 2008).

Values joined by “and” are separate entries in the source; they are usually repeats but may differ in a detail not shown here. Equal values may be shown once.

In assay [1] the test system is E. coli O157:H7 strain ATCC43895. The assay is described as follows: Microbial adhesion assay: detachment of 3H-thymidine labeled bacteria from beef tissue by wash. The format is cell-based.
For assay [2], the system named is E. coli serotype O157:H7 (strain ATCC43895). The class given is cell-based.

B1: lactoferrin (protein, UniProt P24627 20-708, looked up)
Lactotransferrin: APRKNVRWCTISQPEWFKCRRWQWRMKKLGAPSITCVRRAFALECIRAIAEKKADAVTLDGGMVFEAGRDPYKLRPVAAEIYGTKESPQTHYYAVAVVKKGSNFQLDQLQGRKSCHTGLGRSAGWIIPMGILRPYLSWTESLEPLQGAVAKFFSASCVPCIDRQAYPNLCQLCKGEGENQCACSSREPYFGYSGAFKCLQDGAGDVAFVKETTVFENLPEKADRDQYELLCLNNSRAPVDAFKECHLAQVPSHAVVARSVDGKEDLIWKLLSKAQEKFGKNKSRSFQLFGSPPGQRDLLFKDSALGFLRIPSKVDSALYLGSRYLTTLKNLRETAEEVKARYTRVVWCAVGPEEQKKCQQWSQQSGQNVTCATASTTDDCIVLVLKGEADALNLDGGYIYTAGKCGLVPVLAENRKSSKHSSLDCVLRPTEGYLAVAVVKKANEGLTWNSLKDKKSCHTAVDRTAGWNIPMGLIVNQTGSCAFDEFFSQSCAPGADPKSRLCALCAGDDQGLDKCVPNSKEKYYGYTGAFRCLAEDVGDVAFVKNDTVWENTNGESTADWAKNLNREDFRLLCLDGTRKPVTEAQSCHLAVAPNHAVVSRSDRAAHVKQVLLHQQALFGKNGKNCPDKFCLFKSETKNLLFNDNTECLAKLGGRPTYEEYLGTEYVTAIANLKKCSTSPLLEACAFLTR
As to B1, in assay [1], the “% BACTERIAL CELLS DETACHED IN 1-MINUTE” value is 90% and 85% and 78%; the “bacterial detachment” value is given as “effective bacterial detachment”. In assay [2], the “GROWTH (%)” value is reported as 36% and the “effect on growth of the E. coli” value is reported as “reduced the growth”.
